Target: extracellular domain (ECD) of human insulin-like growth factor-1 receptor (hIGF-1R) (human) (UniProt P08069)
Assay: other fluorescence titration

Sequence of UniProt P08069 (P08069 741-935): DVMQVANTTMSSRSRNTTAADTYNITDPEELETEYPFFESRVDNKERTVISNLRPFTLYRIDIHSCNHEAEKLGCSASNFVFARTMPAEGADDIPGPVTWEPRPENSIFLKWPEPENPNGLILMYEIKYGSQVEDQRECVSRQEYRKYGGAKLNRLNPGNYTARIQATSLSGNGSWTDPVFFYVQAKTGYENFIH

Kd: 90 nM
Substance: full-length human insulin-like growth factor 1 (hIGF1) (from UniProt P05019 22-118) (ligand)

From article PMC9712175
